# ± gives the uncertainty stated by the source.
# Assay: abundance fitness (aPCA) (normalised: wild type 0, dead -1); higher = more abundant; growth selection in yeast, the domain comes from the species named
# Conditions: Homo sapiens
row,Substance,abundance fitness
1,"E3 ubiquitin-protein ligase NEDD4-like R217F, Q96PU5",-0.011 ± 0.088
2,"E3 ubiquitin-protein ligase NEDD4-like T218R, Q96PU5",-0.184 ± 0.058
3,"E3 ubiquitin-protein ligase NEDD4-like R223Y, Q96PU5",-0.41 ± 0.1
4,"E3 ubiquitin-protein ligase NEDD4-like S231R, Q96PU5",0.002 ± 0.074
5,"E3 ubiquitin-protein ligase NEDD4-like V229N, Q96PU5",-0.007 ± 0.11
6,"E3 ubiquitin-protein ligase NEDD4-like S231F, Q96PU5",-0.275 ± 0.11
7,"E3 ubiquitin-protein ligase NEDD4-like H186N, Q96PU5",-0.123 ± 0.13
8,"E3 ubiquitin-protein ligase NEDD4-like N215F, Q96PU5",-0.169 ± 0.1
9,"E3 ubiquitin-protein ligase NEDD4-like K202M, Q96PU5",-0.496 ± 0.1
10,"E3 ubiquitin-protein ligase NEDD4-like L190P, Q96PU5",-0.479 ± 0.067
11,"E3 ubiquitin-protein ligase NEDD4-like E201R, Q96PU5",-0.209 ± 0.057
12,"E3 ubiquitin-protein ligase NEDD4-like D204R, Q96PU5",-1.03 ± 0.062
13,"E3 ubiquitin-protein ligase NEDD4-like P194V, Q96PU5",-0.002 ± 0.058
14,"E3 ubiquitin-protein ligase NEDD4-like V203I, Q96PU5",-0.293 ± 0.097
15,"E3 ubiquitin-protein ligase NEDD4-like P194I, Q96PU5",-0.294 ± 0.1
16,"E3 ubiquitin-protein ligase NEDD4-like P194A, Q96PU5",-0.057 ± 0.066
17,"E3 ubiquitin-protein ligase NEDD4-like H186S, Q96PU5",-0.185 ± 0.076
18,"E3 ubiquitin-protein ligase NEDD4-like S225C, Q96PU5",-0.29 ± 0.099
19,"E3 ubiquitin-protein ligase NEDD4-like Q185Y, Q96PU5",0.011 ± 0.11
20,"E3 ubiquitin-protein ligase NEDD4-like S184G, Q96PU5",-0.476 ± 0.11
21,"E3 ubiquitin-protein ligase NEDD4-like R208Y, Q96PU5",-0.23 ± 0.11
22,"E3 ubiquitin-protein ligase NEDD4-like T219V, Q96PU5",-0.348 ± 0.063
23,"E3 ubiquitin-protein ligase NEDD4-like E189Q, Q96PU5",-0.062 ± 0.097
24,"E3 ubiquitin-protein ligase NEDD4-like E200A, Q96PU5",-0.105 ± 0.062

row,Substance,abundance fitness
1,"E3 ubiquitin-protein ligase NEDD4-like W199P, Q96PU5",-1.03 ± 0.13
2,"E3 ubiquitin-protein ligase NEDD4-like V229G, Q96PU5",0.036 ± 0.057
3,"E3 ubiquitin-protein ligase NEDD4-like P193R, Q96PU5",0.025 ± 0.055
4,"E3 ubiquitin-protein ligase NEDD4-like V229D, Q96PU5",0.019 ± 0.068
5,"E3 ubiquitin-protein ligase NEDD4-like L190G, Q96PU5",-0.178 ± 0.059
6,"E3 ubiquitin-protein ligase NEDD4-like R223L, Q96PU5",-0.206 ± 0.053
7,"E3 ubiquitin-protein ligase NEDD4-like H186D, Q96PU5",0.168 ± 0.082
8,"E3 ubiquitin-protein ligase NEDD4-like E232V, Q96PU5",-0.901 ± 0.18
9,"E3 ubiquitin-protein ligase NEDD4-like L206C, Q96PU5",0.003 ± 0.09
10,"E3 ubiquitin-protein ligase NEDD4-like D228E, Q96PU5",0.062 ± 0.09
11,"E3 ubiquitin-protein ligase NEDD4-like E189T, Q96PU5",-0.087 ± 0.077
12,"E3 ubiquitin-protein ligase NEDD4-like R223E, Q96PU5",-0.378 ± 0.087
13,"E3 ubiquitin-protein ligase NEDD4-like N216M, Q96PU5",0.18 ± 0.094
14,"E3 ubiquitin-protein ligase NEDD4-like L226I, Q96PU5",-0.186 ± 0.12
15,"E3 ubiquitin-protein ligase NEDD4-like E201G, Q96PU5",-0.282 ± 0.05
16,"E3 ubiquitin-protein ligase NEDD4-like S184C, Q96PU5",-0.457 ± 0.1
17,"E3 ubiquitin-protein ligase NEDD4-like E201S, Q96PU5",-0.124 ± 0.061
18,"E3 ubiquitin-protein ligase NEDD4-like L190Q, Q96PU5",-0.556 ± 0.13
19,"E3 ubiquitin-protein ligase NEDD4-like L206N, Q96PU5",-0.016 ± 0.11
20,"E3 ubiquitin-protein ligase NEDD4-like P194T, Q96PU5",-0.107 ± 0.07
21,"E3 ubiquitin-protein ligase NEDD4-like D228H, Q96PU5",0.122 ± 0.079
22,"E3 ubiquitin-protein ligase NEDD4-like G207W, Q96PU5",-0.738 ± 0.077
23,"E3 ubiquitin-protein ligase NEDD4-like E188G, Q96PU5",-1.07 ± 0.49
24,"E3 ubiquitin-protein ligase NEDD4-like N213E, Q96PU5",-0.404 ± 0.11

row,Substance,abundance fitness
1,"E3 ubiquitin-protein ligase NEDD4-like Q185D, Q96PU5",-0.097 ± 0.1
2,"E3 ubiquitin-protein ligase NEDD4-like S230C, Q96PU5",-0.067 ± 0.066
3,"E3 ubiquitin-protein ligase NEDD4-like S225H, Q96PU5",-0.264 ± 0.14
4,"E3 ubiquitin-protein ligase NEDD4-like E189M, Q96PU5",-0.477 ± 0.081
5,"E3 ubiquitin-protein ligase NEDD4-like E188A, Q96PU5",-0.854 ± 0.29
6,"E3 ubiquitin-protein ligase NEDD4-like S230I, Q96PU5",-0.274 ± 0.13
7,"E3 ubiquitin-protein ligase NEDD4-like Q220G, Q96PU5",-0.548 ± 0.071
8,"E3 ubiquitin-protein ligase NEDD4-like Y211R, Q96PU5",-0.728 ± 0.052
9,"E3 ubiquitin-protein ligase NEDD4-like S230G, Q96PU5",-0.081 ± 0.054
10,"E3 ubiquitin-protein ligase NEDD4-like G207D, Q96PU5",-0.162 ± 0.056
11,"E3 ubiquitin-protein ligase NEDD4-like P197M, Q96PU5",0.006 ± 0.076
12,"E3 ubiquitin-protein ligase NEDD4-like Q187W, Q96PU5",-0.907 ± 0.073
13,"E3 ubiquitin-protein ligase NEDD4-like W199I, Q96PU5",-0.462 ± 0.13
14,"E3 ubiquitin-protein ligase NEDD4-like Q220Y, Q96PU5",-0.692 ± 0.096
15,"E3 ubiquitin-protein ligase NEDD4-like T219F, Q96PU5",-0.577 ± 0.075
16,"E3 ubiquitin-protein ligase NEDD4-like Q185T, Q96PU5",-0.143 ± 0.1
17,"E3 ubiquitin-protein ligase NEDD4-like E201P, Q96PU5",-0.255 ± 0.091
18,"E3 ubiquitin-protein ligase NEDD4-like P224F, Q96PU5",-1.1 ± 0.21
19,"E3 ubiquitin-protein ligase NEDD4-like S231Y, Q96PU5",-0.228 ± 0.11
20,"E3 ubiquitin-protein ligase NEDD4-like V229F, Q96PU5",-0.057 ± 0.099
21,"E3 ubiquitin-protein ligase NEDD4-like S184P, Q96PU5",-0.682 ± 0.26
22,"E3 ubiquitin-protein ligase NEDD4-like G198T, Q96PU5",-0.239 ± 0.075
23,"E3 ubiquitin-protein ligase NEDD4-like Y210R, Q96PU5",-0.299 ± 0.063
24,"E3 ubiquitin-protein ligase NEDD4-like H214Y, Q96PU5",0.035 ± 0.088

row,Substance,abundance fitness
1,"E3 ubiquitin-protein ligase NEDD4-like P224I, Q96PU5",-0.877 ± 0.18
2,"E3 ubiquitin-protein ligase NEDD4-like H186Q, Q96PU5",-0.511 ± 0.1
3,"E3 ubiquitin-protein ligase NEDD4-like Q187F, Q96PU5",0.041 ± 0.07
4,"E3 ubiquitin-protein ligase NEDD4-like E232H, Q96PU5",-0.574 ± 0.18
5,"E3 ubiquitin-protein ligase NEDD4-like N213L, Q96PU5",-0.709 ± 0.1
6,"E3 ubiquitin-protein ligase NEDD4-like Q220P, Q96PU5",-0.9 ± 0.078
7,"E3 ubiquitin-protein ligase NEDD4-like Q187V, Q96PU5",-0.233 ± 0.06
8,"E3 ubiquitin-protein ligase NEDD4-like P224R, Q96PU5",-0.94 ± 0.056
9,"E3 ubiquitin-protein ligase NEDD4-like K202I, Q96PU5",-0.193 ± 0.13
10,"E3 ubiquitin-protein ligase NEDD4-like N216A, Q96PU5",0.016 ± 0.056
11,"E3 ubiquitin-protein ligase NEDD4-like N216C, Q96PU5",-0.09 ± 0.098
12,"E3 ubiquitin-protein ligase NEDD4-like V203W, Q96PU5",-0.347 ± 0.078
13,"E3 ubiquitin-protein ligase NEDD4-like V229I, Q96PU5",-0.013 ± 0.099
14,"E3 ubiquitin-protein ligase NEDD4-like W221E, Q96PU5",-0.106 ± 0.085
15,"E3 ubiquitin-protein ligase NEDD4-like V203Y, Q96PU5",-0.227 ± 0.11
16,"E3 ubiquitin-protein ligase NEDD4-like L190D, Q96PU5",0.066 ± 0.1
17,"E3 ubiquitin-protein ligase NEDD4-like W199R, Q96PU5",-0.536 ± 0.065
18,"E3 ubiquitin-protein ligase NEDD4-like S231G, Q96PU5",-0.049 ± 0.064
19,"E3 ubiquitin-protein ligase NEDD4-like W199N, Q96PU5",-0.853 ± 0.19
20,"E3 ubiquitin-protein ligase NEDD4-like S184E, Q96PU5",-0.507 ± 0.49
21,"E3 ubiquitin-protein ligase NEDD4-like P224C, Q96PU5",-0.772 ± 0.11
22,"E3 ubiquitin-protein ligase NEDD4-like N215T, Q96PU5",-0.118 ± 0.095
23,"E3 ubiquitin-protein ligase NEDD4-like P224G, Q96PU5",-0.734 ± 0.065

# — the Human Domainome abundance scans (Beltran et al. 2025)
